Measurements taken from patent US20050221433A1 (Regeneron, published 2005).

Assays:
recombinant human IL-18 [1] = molecular target: T1, recombinant human IL-18 (human, UniProt Q14116 37-193); assay: cell-based or functional assay
T1 sequence (looked up): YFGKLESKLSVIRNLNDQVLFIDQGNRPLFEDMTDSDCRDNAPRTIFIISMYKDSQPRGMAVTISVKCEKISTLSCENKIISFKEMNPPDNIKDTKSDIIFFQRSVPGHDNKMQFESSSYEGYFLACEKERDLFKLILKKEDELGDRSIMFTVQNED

recombinant human IL-18 [2] = molecular target: T1, recombinant human IL-18; assay: printed in the IC50 (M) column of Table 2 (HEK293/NFkB-luciferase hIL-18 inhibition bioassay, CHO transient supernatant)
From the text: hIL-18 Inhibition. The HEK293/NFkB-luciferase bioassay is used to determine the ability of the IL-18-specific polypeptides of the invention to block the activity of human IL-18 (hIL-18). Human embryonic kidney 293, HEK293, cells, were transfected with an NFκB-luciferase reporter plasmid. By placing an NFκB promoter element upstream of the luciferase gene one can monitor NFκB activity in cells. Because IL-18 signaling is mediated by NFκB, when cells containing the 293/NFκB luciferase construct and the IL-18 receptors are stimulated with hIL-18, the luciferase gene is expressed and luciferase activity can be detected in cell lysates. A stable, transfected, cell line, HEK293/D9, was selected for good response to IL-1 as detected by luciferase activity. This line was transfected with the human IL-18Rα (IL-IRrp) and IL-18Rβ (IL1RAcPL) receptors and stable cell lines that responded to IL-18 with a strong luciferase signal were isolated. These cells are called hIL-18-NFκB-luciferase cells.
For the assay, hIL-18-NFκB-Luciferase cells were suspended at 1.25×10⁵ cells per ml in medium and 0.08 ml of cells plated (10,000 cells per well) into the wells of a 96 well tissue culture plate. […] Plates were incubated at room temperature for ˜10 minutes and then read on a Victor multilabel counter (Luminescence 1 sec/well).

Binder | IC50 (M), HEK293/NFkB-luciferase bioassay (recombinant human IL-18 [1]) | binding result (recombinant human IL-18 [2])
hIL18BPa (1-181) (C49S, C129S).His (receptor) TPVSQTTTAATASVRSTKDPSPSQPPVFPAAKQCPALEVTWPEVEVPLNGTLSLSCVACSRFPNFSILYWLGNGSFIEHLPGRLWEGSTSRERGSTGTQLSKALVLEQLTPALHSTNFSCVLVDPEQVVQRHVVLAQLWAGLRATLPPTQEALTGHHHHHHHH | 1.23e-10 M | 
hIL18BPa (1-192) (C49S, C129S).His (receptor) TPVSQTTTAATASVRSTKDPSPSQPPVFPAAKQCPALEVTWPEVEVPLNGTLSLSCVACSRFPNFSILYWLGNGSFIEHLPGRLWEGSTSRERGSTGTQLSKALVLEQLTPALHSTNFSCVLVDPEQVVQRHVVLAQLWAGLRATLPPTQEALPSSHSSPQQQGTGHHHHHHHH | 8.59e-11 M | 
hIL18BPa (58-192) (C129S).His (receptor) AAKQCPALEVTWPEVEVPLNGTLSLSCVACSRFPNFSILYWLGNGSFIEHLPGRLWEGSTSRERGSTGTQLSKALVLEQLTPALHSTNFSCVLVDPEQVVQRHVVLAQLWAGLRATLPPTQEALPSSHSSPQQQGHHHHHHHH | 3.9e-11 M | 
hIL18BPa (72-192).TG.hFc (Fc fusion, not shown: hFc (human Fc)) VEVPLNGTLSLSCVACSRFPNFSILYWLGNGSFIEHLPGRLWEGSTSRERGSTGTQLCKALVLEQLTPALHSTNFSCVLVDPEQVVQRHVVLAQLWAGLRATLPPTQEALPSSHSSPQQQGTG |  | no binding
